In publication PMC9561264, “Direct hOGG1-Myc interactions inhibit hOGG1 catalytic activity and recruit Myc to its promoters under oxidative stress”:

B1: oxoG 48 bp (EMSA/FP) (dsDNA)
DNA 1: GCATGCCTCGAGTCTAGAGGTACCAGATCTGATCCTCTAGAGTCGACC
DNA 2: GGTCGACTCTAGAGGATCAGATCTGGTACCTCTAGACTCGAGGCATGC
modifications: 8-oxoguanine at position 10 of strand 1 (written G)
B2: undamaged (nsp) 48 bp (dsDNA)
DNA 1: B1 DNA 1
DNA 2: B1 DNA 2

Tests used:
hOGG1 K249Q [1] = target: T1, hOGG1 K249Q (human, UniProt O15527 1-345, K249Q); assay: fluorescence polarisation; reducing; FP at 25°C with 5 nM labelled DNA; EMSA room temp 30 min, 15% native PAGE 0.5x TBE 4°C; interaction buffer 20 mM Tris-HCl pH 7.6, 200 mM NaCl (Fig. S12); reducing (5 mM DTT in EMSA) or oxidising (pre-oxidised hOGG1); settings: protein: recombinant; tags: N-terminal His6 (removed where required); label: 5' AF647 (FP) or Cy3 (EMSA) on bottom strand; blunt
T1 sequence (O15527 whole entry K249Q): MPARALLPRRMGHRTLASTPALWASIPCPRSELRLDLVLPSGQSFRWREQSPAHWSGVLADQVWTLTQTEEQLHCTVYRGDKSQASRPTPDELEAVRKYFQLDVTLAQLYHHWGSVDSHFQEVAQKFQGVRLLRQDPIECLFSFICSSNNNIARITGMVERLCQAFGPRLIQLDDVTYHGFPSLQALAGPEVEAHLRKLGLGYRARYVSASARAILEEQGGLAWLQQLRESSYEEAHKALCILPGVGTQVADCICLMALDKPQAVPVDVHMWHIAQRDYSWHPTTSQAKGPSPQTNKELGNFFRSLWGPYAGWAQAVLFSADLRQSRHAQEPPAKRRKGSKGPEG

hOGG1 C28A [2] = target: T2, hOGG1 C28A (human, UniProt O15527 1-345, C28A); assay: as above; settings: protein: recombinant; tags: N-terminal His6 (removed where required); label: 5' AF647 (FP) or Cy3 (EMSA) on bottom strand; blunt
T2 sequence (O15527 whole entry C28A): as the sequence (O15527 whole entry K249Q) above, with C28A, Q249K counted along it

hOGG1 C253A = hOGG1 C253A (human, UniProt O15527 1-345, C253A); assay: as above; settings: protein: recombinant; tags: N-terminal His6 (removed where required); label: 5' AF647 (FP) or Cy3 (EMSA) on bottom strand; blunt
Sequence of hOGG1 C253A (O15527 whole entry C253A): as the sequence (O15527 whole entry K249Q) above, with Q249K, C253A counted along it

hOGG1 wild type;c-Myc [3] = target: T3, hOGG1 wild type;c-Myc (human;human?, UniProt O15527;P01106 1-345;16-454, |); assay: EMSA; 300 nM each; oxidising and reducing (less stable reducing); FP at 25°C with 5 nM labelled DNA; EMSA room temp 30 min, 15% native PAGE 0.5x TBE 4°C; interaction buffer 20 mM Tris-HCl pH 7.6, 200 mM NaCl (Fig. S12); reducing (5 mM DTT in EMSA) or oxidising (pre-oxidised hOGG1); settings: protein: recombinant;commercial; tags: N-terminal His6 (removed by protease where required);GST; quantum dot in E-box AFM; label: 5' AF647 (FP) or Cy3 (EMSA) on bottom strand; blunt
T3 sequence (O15527 whole entry, chain 1 of 2): as the sequence (O15527 whole entry K249Q) above, with Q249K counted along it
T3 sequence (P01106 16-454, chain 2 of 2): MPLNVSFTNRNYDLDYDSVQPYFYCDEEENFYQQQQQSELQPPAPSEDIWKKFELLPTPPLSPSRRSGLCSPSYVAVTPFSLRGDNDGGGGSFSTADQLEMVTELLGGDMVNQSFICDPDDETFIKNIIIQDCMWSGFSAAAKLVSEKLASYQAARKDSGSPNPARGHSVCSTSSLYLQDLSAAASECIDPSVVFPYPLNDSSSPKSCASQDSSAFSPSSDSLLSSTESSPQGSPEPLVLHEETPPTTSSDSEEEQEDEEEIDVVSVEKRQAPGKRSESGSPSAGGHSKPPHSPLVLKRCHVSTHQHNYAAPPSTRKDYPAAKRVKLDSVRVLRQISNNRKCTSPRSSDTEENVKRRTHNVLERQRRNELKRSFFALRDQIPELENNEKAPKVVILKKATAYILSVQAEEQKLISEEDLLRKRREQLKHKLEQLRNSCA

hOGG1 K249Q [4] = target: T1, hOGG1 K249Q; assay: fluorescence polarisation; oxidising; FP at 25°C with 5 nM labelled DNA; EMSA room temp 30 min, 15% native PAGE 0.5x TBE 4°C; interaction buffer 20 mM Tris-HCl pH 7.6, 200 mM NaCl (Fig. S12); reducing (5 mM DTT in EMSA) or oxidising (pre-oxidised hOGG1); settings: protein: recombinant; tags: N-terminal His6 (removed where required); label: 5' AF647 (FP) or Cy3 (EMSA) on bottom strand; blunt
hOGG1 C28A [5] = target: T2, hOGG1 C28A; assay: as above; settings: protein: recombinant; tags: N-terminal His6 (removed where required); label: 5' AF647 (FP) or Cy3 (EMSA) on bottom strand; blunt
hOGG1 wild type;c-Myc [6] = target: T3, hOGG1 wild type;c-Myc; assay: EMSA; less stable under reducing conditions; FP at 25°C with 5 nM labelled DNA; EMSA room temp 30 min, 15% native PAGE 0.5x TBE 4°C; interaction buffer 20 mM Tris-HCl pH 7.6, 200 mM NaCl (Fig. S12); reducing (5 mM DTT in EMSA) or oxidising (pre-oxidised hOGG1); settings: protein: recombinant;commercial; tags: N-terminal His6 (removed by protease where required);GST; quantum dot in E-box AFM; label: 5' AF647 (FP) or Cy3 (EMSA) on bottom strand; blunt

| Binder | Kd (hOGG1 K249Q [1]) [nM] | Kd (hOGG1 C28A [2]) [nM] | Kd (hOGG1 C253A) [nM] | binding result (hOGG1 wild type;c-Myc [3]) | Kd (hOGG1 K249Q [4]) [nM] | Kd (hOGG1 C28A [5]) [nM] | binding result (hOGG1 wild type;c-Myc [6]) |
| --- | --- | --- | --- | --- | --- | --- | --- |
| B1 | 42 ± 3 | 65 ± 8 | 99 ± 24 | binds | 95 ± 5 | 61 ± 11 |  |
| B2 |  |  |  |  |  |  | binds |
